# Data from article PMC12225977 (PLOS Computational Biology, 2025).
# B1: Francisella tularensis dihydrolipoyl dehydrogenase (IPD) (enzyme)
# chain: MSDIKTQVVVLGSGPGGYSAAFRAADLGLEVVLVERYAEIGGVCLNVGCIPSKAMLHIAKVINEARHLESLGIIEMGGLKINRENLLKYKDGVIGKLTGGLKGMAQMRKVKIVQGYGKFTSDKELAVEAADGKVTKIAFDNCIIAAGSSVIKLPFVPEDDRIIDSTGALEMKEIPETMLVVGGGIIGLEMAQVYSELGTKITVVEFADQLMNGVDKDLVKAYQKVNSRYDVRLKTAVTAMEAKEDGIYVTMEGDHPAKDERFDRVLMAIGRKPNGKLIDAEKAGVKVDERGFIPVDKQLRTNVPHIFAIGDIVGQPMLAHKAVPEGRTAAEVISGLNHSFDPLVIPSVAYTDPEVAWVGETETSAKAKGIKYEKGVFPWAASGRSLSIDRSEGMTKILFDENHKIIGASIVGTHAGELISEAAIAIEMGCDAEDIALTVHPHPTLSESLMMATEVYEGTATDLPPQKKKK
# notes: also called Francisella IPD; MGH6-IPD
# Target: the molecule itself
# Experiment: native MS
protein,measurement,value
B1,stoichiometry N,2
